From PMC12729873, “Linoleic Hydroperoxides Are Potent Hyperoxidative Agents of Sensitive and Robust Typical 2-Cys Peroxiredoxins” (Antioxidants, 2025)

Columns and labels:
Assay in all cases: purified protein
[1] = tested on: CC(C)(OO)c1ccccc1; conditions: S. cerevisiae Trx1/TrxR1, NADPH 150 µM, HEPES pH 7.4, 37 °C, DTPA 100 µM, azide 1 mM, fit to low-substrate phase only
[2] = tested on: CC(C)(OO)c1ccccc1; type: biochemical, Pseudomonas aeruginosa; conditions: E. coli Trx/TrxR, NADPH 150 µM, HEPES pH 7.4, 37 °C, DTPA 100 µM, azide 1 mM, fit to low-substrate phase only
[3] = substrate: CC(C)(OO)c1ccccc1; conditions: E. coli Trx/TrxR, NADPH 150 µM, HEPES pH 7.4, 37 °C, DTPA 100 µM, azide 1 mM, fit to low-substrate phase only

HsPrx2 (Homo sapiens)
Km [1]: 57 (±17) µM | Vmax [1]: 101 µM/min | kcat [1]: 0.56 ± 0.09 s⁻¹ | kcat/Km [1]: 9800 ± 1300 M⁻¹ s⁻¹

PaAhpC (Pseudomonas aeruginosa UCBPP-PA14)
Km [2]: 82 (±14) µM | Vmax [2]: 34.2 µM/min | kcat [2]: 0.18 ± 0.01 s⁻¹ | kcat/Km [2]: 2000 ± 200 M⁻¹ s⁻¹

B1: SeAhpC (Staphylococcus epidermidis RP62A) (protein)
chain: MSLINKEILPFTAQAYDPKKDEFKEVTQEDFKGSWNVVCFYPADFSFVCPTELEDLQNQYAKLQELGVNVYSVSTDTHFVHKAWHDHSDAISKLEYSMIGDPSQTITRNFDVLDEETGLAQRGTFIIDPDGVVQAAEINADGIGRDASTLVNKIKAAQYVRQHPGEVCPAKWEEGSESLQPGLDLVGKI
Km [3]: 76 (±10) µM | Vmax [3]: 35.4 µM/min | kcat [3]: 0.19 ± 0.01 s⁻¹ | kcat/Km [3]: 2500 ± 100 M⁻¹ s⁻¹
